These results are taken from PMC5827659.

Common to all, as to assay: FRET (FIRE system)
In experiment [1] the target is FIRE construct Y-TMG-/C-TMG-CC1 L251S R304W, Q13586-1. The settings on record: HEK 293 cells; n=39; parent: est. 0.084; read off a plot.
In experiment [2] the target is FIRE construct Y-TMG-/C-TMG-CC1 R304K, Q13586-1. Particulars: HEK 293 cells; n=52; parent: est. 0.084; read off a plot.
Experiment [3] deals with FIRE construct Y-TMG-/C-TMG-CC1α1α2 L251S R304W, Q13586-1. The settings on record: HEK 293 cells; n=9; parent: est. 0.077; read off a plot.
For experiment [4], the target named is FIRE construct Y-TMG-/C-TMG-CC1α1α2 R304K, Q13586-1. Particulars: HEK 293 cells; n=18; parent: est. 0.077; read off a plot.
FIRE construct Y-TMG-/C-TMG-CC1α1α2 R304K, Q13586-1, sequence (Q13586 whole entry R304K, looked up): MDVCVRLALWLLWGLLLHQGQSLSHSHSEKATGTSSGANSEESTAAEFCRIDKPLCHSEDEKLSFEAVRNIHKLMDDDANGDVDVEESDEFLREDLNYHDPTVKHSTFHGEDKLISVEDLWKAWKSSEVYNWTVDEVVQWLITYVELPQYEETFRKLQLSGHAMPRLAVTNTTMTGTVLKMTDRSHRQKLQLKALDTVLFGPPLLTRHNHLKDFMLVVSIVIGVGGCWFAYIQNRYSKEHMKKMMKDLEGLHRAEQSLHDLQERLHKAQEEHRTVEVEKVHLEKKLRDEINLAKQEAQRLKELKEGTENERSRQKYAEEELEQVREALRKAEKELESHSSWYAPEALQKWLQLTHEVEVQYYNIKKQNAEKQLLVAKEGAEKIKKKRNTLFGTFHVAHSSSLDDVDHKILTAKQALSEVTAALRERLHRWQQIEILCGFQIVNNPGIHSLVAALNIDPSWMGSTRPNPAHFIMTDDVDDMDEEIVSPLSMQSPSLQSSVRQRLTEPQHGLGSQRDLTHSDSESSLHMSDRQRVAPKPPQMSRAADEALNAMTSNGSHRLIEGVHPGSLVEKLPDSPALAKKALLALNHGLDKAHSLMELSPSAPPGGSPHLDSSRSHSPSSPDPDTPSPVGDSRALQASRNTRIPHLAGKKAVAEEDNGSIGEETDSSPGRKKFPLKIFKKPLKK

FIRE construct Y-TMG-/C-TMG-CC1 R304K, Q13586-1, sequence (Q13586 whole entry R304K, looked up): as above
FIRE construct Y-TMG-/C-TMG-CC1 L251S R304W, Q13586-1, sequence (Q13586 whole entry L251S/R304W, looked up): as the sequence (Q13586 whole entry R304K, looked up) above, with L251S, K304W counted along it
FIRE construct Y-TMG-/C-TMG-CC1α1α2 L251S R304W, Q13586-1, sequence (Q13586 whole entry L251S/R304W, looked up): as the sequence (Q13586 whole entry R304K, looked up) above, with L251S, K304W counted along it

On to “FIRE construct Y-TMG-/C-TMG-CC1 (STIM1 CC1 233–343) wild type (from UniProt Q13586-1) L251S; R304W”, for which, in experiment [1], the response amounted to 0.096 Eapp.

For “FIRE construct Y-TMG-/C-TMG-CC1 (STIM1 CC1 233–343) wild type (from UniProt Q13586-1) R304K”, the response in experiment [2] amounted to 0.074 Eapp.

On to “FIRE construct Y-TMG-/C-TMG-CC1α1α2 (STIM1 233–309) wild type (from UniProt Q13586-1) L251S; R304W”, for which the response in experiment [3] amounted to 0.091 Eapp.

Turning to “FIRE construct Y-TMG-/C-TMG-CC1α1α2 (STIM1 233–309) wild type (from UniProt Q13586-1) R304K”, the response in experiment [4] worked out at 0.06 Eapp.
